Measurements reported in patent publication US20240182563A1 (GENOME, published 2024).

T1: human CNTN4 antigen expressed on the cell membrane of 293FT cells (human) (UniProt Q8IWV2)
T1 sequence (looked up): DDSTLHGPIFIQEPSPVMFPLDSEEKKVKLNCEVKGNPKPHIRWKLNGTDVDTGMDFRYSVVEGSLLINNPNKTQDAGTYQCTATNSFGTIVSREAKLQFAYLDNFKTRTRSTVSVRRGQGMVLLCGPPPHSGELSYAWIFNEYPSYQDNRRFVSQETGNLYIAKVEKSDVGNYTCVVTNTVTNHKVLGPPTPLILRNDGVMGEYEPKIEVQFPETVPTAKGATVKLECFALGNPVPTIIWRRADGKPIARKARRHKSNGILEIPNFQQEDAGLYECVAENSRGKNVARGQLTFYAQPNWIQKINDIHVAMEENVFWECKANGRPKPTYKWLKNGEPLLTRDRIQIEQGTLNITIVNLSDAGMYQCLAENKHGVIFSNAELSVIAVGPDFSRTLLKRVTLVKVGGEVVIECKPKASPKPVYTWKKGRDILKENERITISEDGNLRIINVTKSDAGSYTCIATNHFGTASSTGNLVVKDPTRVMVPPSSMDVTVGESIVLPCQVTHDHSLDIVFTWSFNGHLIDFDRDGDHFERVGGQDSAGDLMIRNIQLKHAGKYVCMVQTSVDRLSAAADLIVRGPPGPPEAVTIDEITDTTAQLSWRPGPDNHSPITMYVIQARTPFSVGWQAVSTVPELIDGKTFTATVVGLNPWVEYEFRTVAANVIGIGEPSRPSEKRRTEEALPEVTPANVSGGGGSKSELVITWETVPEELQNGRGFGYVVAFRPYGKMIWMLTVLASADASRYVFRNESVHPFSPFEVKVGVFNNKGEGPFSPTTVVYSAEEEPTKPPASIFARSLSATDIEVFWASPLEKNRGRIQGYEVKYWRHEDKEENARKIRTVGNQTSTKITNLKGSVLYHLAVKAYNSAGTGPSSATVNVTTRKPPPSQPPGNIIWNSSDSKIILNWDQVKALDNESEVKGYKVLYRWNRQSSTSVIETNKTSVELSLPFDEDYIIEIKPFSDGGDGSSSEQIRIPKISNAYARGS

T2: human CNTN4-rabbit Fc (human; rabbit, UniProt Q8IWV2 19-1000, limits assumed)
T2 construct: not shown: rabbit Fc
T2 sequence (looked up): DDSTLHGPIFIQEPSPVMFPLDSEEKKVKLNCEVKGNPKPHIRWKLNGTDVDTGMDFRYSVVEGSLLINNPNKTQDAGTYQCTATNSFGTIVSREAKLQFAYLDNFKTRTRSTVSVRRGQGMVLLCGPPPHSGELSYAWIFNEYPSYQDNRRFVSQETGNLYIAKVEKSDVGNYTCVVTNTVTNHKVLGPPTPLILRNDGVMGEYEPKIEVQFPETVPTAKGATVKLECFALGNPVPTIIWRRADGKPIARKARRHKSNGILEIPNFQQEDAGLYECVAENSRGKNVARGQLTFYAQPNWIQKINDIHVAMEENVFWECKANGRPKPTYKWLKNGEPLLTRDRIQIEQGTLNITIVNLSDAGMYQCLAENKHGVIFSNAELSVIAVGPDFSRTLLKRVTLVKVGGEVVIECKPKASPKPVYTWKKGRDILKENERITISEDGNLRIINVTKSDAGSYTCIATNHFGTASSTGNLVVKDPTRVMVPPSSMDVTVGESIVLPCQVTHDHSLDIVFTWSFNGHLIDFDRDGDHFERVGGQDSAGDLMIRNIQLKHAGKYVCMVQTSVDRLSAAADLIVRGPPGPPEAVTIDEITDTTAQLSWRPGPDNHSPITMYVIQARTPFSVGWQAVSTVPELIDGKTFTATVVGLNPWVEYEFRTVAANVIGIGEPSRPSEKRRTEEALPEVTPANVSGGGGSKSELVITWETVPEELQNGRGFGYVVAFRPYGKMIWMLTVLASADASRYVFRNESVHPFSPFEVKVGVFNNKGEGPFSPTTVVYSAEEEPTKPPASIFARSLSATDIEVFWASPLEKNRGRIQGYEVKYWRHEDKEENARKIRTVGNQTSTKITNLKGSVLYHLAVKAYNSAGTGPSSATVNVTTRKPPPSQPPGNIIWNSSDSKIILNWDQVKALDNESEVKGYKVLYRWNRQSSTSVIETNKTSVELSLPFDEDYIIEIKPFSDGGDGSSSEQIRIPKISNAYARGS

T3: mouse CNTN4-rabbit Fc (mouse; rabbit, UniProt Q69Z26 19-1000, limits assumed)
T3 construct: not shown: rabbit Fc
T3 sequence (looked up): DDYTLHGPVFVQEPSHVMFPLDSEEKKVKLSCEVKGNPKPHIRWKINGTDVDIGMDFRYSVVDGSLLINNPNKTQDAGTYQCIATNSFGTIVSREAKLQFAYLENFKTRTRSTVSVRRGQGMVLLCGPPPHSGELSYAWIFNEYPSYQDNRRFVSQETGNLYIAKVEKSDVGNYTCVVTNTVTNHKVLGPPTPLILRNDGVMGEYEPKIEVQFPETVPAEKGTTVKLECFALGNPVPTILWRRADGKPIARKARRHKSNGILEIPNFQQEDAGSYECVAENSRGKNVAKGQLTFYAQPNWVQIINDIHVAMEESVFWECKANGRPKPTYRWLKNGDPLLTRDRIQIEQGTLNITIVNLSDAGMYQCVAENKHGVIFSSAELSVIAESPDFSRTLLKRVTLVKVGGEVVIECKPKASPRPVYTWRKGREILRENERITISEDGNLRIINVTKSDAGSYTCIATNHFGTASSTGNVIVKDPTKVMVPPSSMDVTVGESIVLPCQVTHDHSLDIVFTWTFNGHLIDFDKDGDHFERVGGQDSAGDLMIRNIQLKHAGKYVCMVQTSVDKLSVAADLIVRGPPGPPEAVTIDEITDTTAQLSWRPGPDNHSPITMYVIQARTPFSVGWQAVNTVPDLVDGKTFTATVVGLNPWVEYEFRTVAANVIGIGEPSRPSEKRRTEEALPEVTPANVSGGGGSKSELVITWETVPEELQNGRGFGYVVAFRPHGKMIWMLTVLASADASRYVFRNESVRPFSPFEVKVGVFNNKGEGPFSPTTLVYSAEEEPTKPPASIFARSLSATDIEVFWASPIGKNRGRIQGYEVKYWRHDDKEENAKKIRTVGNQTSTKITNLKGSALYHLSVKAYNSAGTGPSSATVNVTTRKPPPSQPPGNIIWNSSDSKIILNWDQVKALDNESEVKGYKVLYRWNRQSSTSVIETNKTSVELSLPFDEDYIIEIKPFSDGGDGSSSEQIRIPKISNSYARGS


Tests used:
[1] = target: T1, human CNTN4 antigen expressed on the cell membrane of 293FT cells (human); assay: FACS, 293FT cells transfected with human CNTN4, 40 ug/mL, anti-hCk-PE
[2] = target: T2, human CNTN4-rabbit Fc; assay: ELISA, plate coated with antigen-rabbit Fc, anti-human kappa-HRP
[3] = target: T3, mouse CNTN4-rabbit Fc; assay: as above

Shift % [1]	EC50 [2]	EC50 [3]	Binder
15.3%	0.41 nM	0.52 nM	anti-CNTN4 scFv-hCk S137 (scFv, part only; not given: linker and kappa constant region, not shown: a dimerising Fc or GST) scFv, part: ALTQPSSVSANPGETVKITCSGGSSYGWYQQKSPGSAPVTVIYDNTNRPSNIPSRFSGSKSGSTNTLTITGVQAEDEAVYYCGGYDGSTDAFGAGTTLTVLAVTLDESEGGLQTPGGALSLVCKASGFTFSSFNMFWVRQAPGKGLEYVAEISGGGGSTWYAPAVKGRATISRDNGQSTVRLQLNNLRAEDTGTYYCAKSADTWSYGAATIDAWGHGTEVIVSS
18%	0.75 nM	0.75 nM	anti-CNTN4 scFv-hCk S134 (scFv, part only; not given: linker and kappa constant region, V domains shown, not shown: another chain or arm of the molecule; a dimerising Fc or GST; small tags and cut ends) VL: ALTQPSSVSANPGETVKITCSGGTYSYGNYYYGWYQQKSPGSAPVTVIYNNNNRPSDIPSRFSGSGSGSTGTLTITGVRAEDEAVYYCGGYDGSTDVFGAGTTLTVL VH: AVTLDESEGGLQTPGGALSLVCKASGFTFSSFNMFWVRQAPGKGLEYVAEISGGGGSTWYAPAVKGRATISRDNGQSTVRLQLNNLRAEDTGTYYCAKSADTWSYGAATIDAWGHGTEVIVSS
18.2%	1.06 nM	0.71 nM	anti-CNTN4 scFv-hCk S135 (scFv, part only; not given: linker and kappa constant region, V domains shown, not shown: another chain or arm of the molecule; a dimerising Fc or GST; small tags and cut ends) VL: ALTQPSSVSANPGETVKITCSGGGSSSYYGWYQQKSPGSAPVTVIYYNNRPSDIPSRFSGSGSGSTGTLTITGVRAEDEAVYYCGGYDGSTDVFGAGTTLTVL VH: AVTLDESEGGLQTPGGALSLVCKASGFTFSSFNMFWVRQAPGKGLEYVAEISGGGGSTWYAPAVKGRATISRDNGQSTVRLQLNNLRAEDTGTYYCAKSADTWSYGAATIDAWGHGTEVIVSS

The next lines start with the binder.

Binder	Shift % [1]	EC50 [2]	EC50 [3]
anti-CNTN4 scFv-hCk S1 (scFv, part only; not given: linker and kappa constant region, not shown: a dimerising Fc or GST) scFv, part: ALTQPSSVSANPGETVKITCSGGSSYGWYQQKSPGSAPVTVIYDNTNRPSNIPSRFSGSKSGSTNTLTITGVRAEDEAVYFCGGYDSSIDAFGAGTTLTVLAVTLDESEGGLQTPGGALSLVCKASGFTFSSFNMFWVRQAPGKGLEYVAEISGGGGSTWYAPAVKGRATISRDNGQSTVRLQLNNLRAEDTGTYYCAKSADTWSYGAATIDAWGHGTEVIVSS	13.8%	4.44 nM	1.53 nM
anti-CNTN4 scFv-hCk S24 (scFv, part only; not given: linker and kappa constant region, not shown: a dimerising Fc or GST) scFv, part: ALTQPSSVSANPGETVEITCSGGSGSYGWYQQKAPGSAPVTVIYDNTNRPSNIPSRFSGSGSDSTGTLTITGVQADDEAVYYCGSYDSIEVIFGAGTTLTVLAVTLDESGGGLHTPGGALSLVCKASGFTFSSYGMAWVRQAPGKGLEWVAGITSSGSSAGYGPAVKGRATISRDNGQSTVRLQLNNLRAEDTATYYCAKDGYIYSGGDSDSIDAWGHGTEVIVSS	5.63%	1.12 nM	2.07 nM
anti-CNTN4 scFv-hCk S46 (scFv, part only; not given: linker and kappa constant region, not shown: a dimerising Fc or GST) scFv, part: ALTQPSSVSANPGETVEITCSGGSGSYGWYQQKAPGSAPVTVIYDNTNRPSNIPSRFSGSGSDSTGTLTITGVQADDKAVYYCGSYDSIEVIFGAGTTLTVLAVTLDESGGGLHTPGGALSLVCKASGFTFSSYGMAWVRQAPGKGLEWVAGITSSGSSAGYGPAVKGRATISRDNGQSTVRLQLNNLRAEDTATYYCAKDGYIYSGADSDSIDAWGHGTEVIVSS	8.19%	1.22 nM	1.2 nM
anti-CNTN4 scFv-hCk S132 (scFv, part only; not given: linker and kappa constant region, V domains shown, not shown: another chain or arm of the molecule; a dimerising Fc or GST; small tags and cut ends) VL: ALTQPSSVSANPGETVKITCSGGGSSTYYGWYQQKSPGSAPVTVIYNNNNRPSDIPSRFSGSGSGSTGTLTITGVRAEDEAVYYCGGYDGSTDVFGAGTTLTVL VH: AVTLDESGGGLQTPGGALSLVCKASGFTFSSFNMFWVRQAPGKGLEYVAEISGGGGSTWYAPAVKGRATISRDNGQSTVRLQLNNLRAEDTGTYYCAKSADTWSYGAATIDAWGHGTEVIVSS	16.1%	1.16 nM	0.72 nM
